We go through seven molecules from patent publication US6576610B1, “Use of a context-dependent functional entity to enhance the efficacy of an agent” (Nuvas, LLC, priority 1999, dated 2003).

“Also recorded” adds a separate entry of the source.

The target of series [1] is NV144 (UniProt P13726).
In series [2] the target is TF 1-218 (UniProt P13726).
The target in series [3] is T1, Kringle 5 of plasminogen (Homo sapiens, UniProt P00747).
T1 sequence (P00747 481-560 limits assumed): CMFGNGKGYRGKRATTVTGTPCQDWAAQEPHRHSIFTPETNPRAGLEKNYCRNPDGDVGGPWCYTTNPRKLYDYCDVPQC
The following applies: Chang et al. 1998; read-out: binding to kringle 5 of plasminogen; cited from earlier work.

The test system of series [4] is factors IX and X. The following applies: Rao et al. 1988; cited from earlier work.
Series [5] addresses T2, blood coagulation factor VIIa (UniProt P08709 61-466).
T2 sequence (looked up): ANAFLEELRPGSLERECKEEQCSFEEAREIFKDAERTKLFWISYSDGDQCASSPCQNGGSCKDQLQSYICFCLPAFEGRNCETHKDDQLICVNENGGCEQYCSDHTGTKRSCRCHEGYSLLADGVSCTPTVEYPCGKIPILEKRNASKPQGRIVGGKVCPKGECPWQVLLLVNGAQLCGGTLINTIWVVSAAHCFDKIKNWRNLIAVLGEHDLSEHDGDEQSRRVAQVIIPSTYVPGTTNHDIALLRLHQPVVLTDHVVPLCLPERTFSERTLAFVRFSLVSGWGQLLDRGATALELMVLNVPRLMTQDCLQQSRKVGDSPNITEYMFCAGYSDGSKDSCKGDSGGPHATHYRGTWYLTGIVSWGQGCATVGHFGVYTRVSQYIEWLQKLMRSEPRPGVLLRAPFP
As to the kind of experiment: titration of the amidolytic activity of factor VIIa against protein concentration.

Series [6] addresses T2, blood coagulation factor VIIa. As to the kind of experiment: surface plasmon resonance, Biacore 2000. For orientation: In SPR one partner is held on a chip, and binding of the other changes the refractive index at the surface.
The test system of series [7] is factor X. As to the kind of experiment: Linked functional assay: factor Xa generation by protein:VIIa complex incubated with factor X. The series is classed as biochemical. The following applies: for Relative Proteolytic Activity: factor Xa generation, TF 1-218 = 1.00.
The test system of series [8] is C1300 neuroblastoma tumor spheroid. As to the kind of experiment: Intravital microscopy of tumor vessels in skinfold chamber. The series is classed as in vivo, A/J mouse. The following applies: infused over 30 min.
In series [9] the test system is MAT B III breast carcinoma tumors. As to the kind of experiment: Syngeneic MAT B III rat breast carcinoma model. The following applies: NV144 alone. Type of series: in vivo, Fisher 344 rats. The text has this: The MAT B III rat breast carcinoma is very malignant and fast-growing and, unlike many animal tumors, metastasizes. In addition, the tumor-bearing host lives sufficiently long to develop metastatic disease from the primary tumor. As such, the MAT-BIII tumor model has similar characteristics to human tumors.
Fisher 344 rats bearing MAT B III breast carcinoma tumors were used for these studies. Experiments were begun when the tumors reached approximately 170-200 mm3 in size (5-9 days; “day 0”). Tumors in saline treated controls grew very rapidly and reach a size of about 35,000 mm^3 at day 7. In the treatment groups, tumor-bearing rats were treated with NV144 or DOXIL (Sequus Pharmaceuticals, Inc.), either alone or in combination. In the clinic, DOXIL generally is administered at about 4 mg/kg.
At the highest dose of DOXIL (9 mg/kg), survival initially appeared to be similar in both groups of rats; however, none of the animals survived beyond day 23 due to the high dose of DOXIL.

Series [10] concerns the target T3, factor VIIa (Homo sapiens, UniProt P08709).
T3 sequence (P08709 61-212 limits assumed): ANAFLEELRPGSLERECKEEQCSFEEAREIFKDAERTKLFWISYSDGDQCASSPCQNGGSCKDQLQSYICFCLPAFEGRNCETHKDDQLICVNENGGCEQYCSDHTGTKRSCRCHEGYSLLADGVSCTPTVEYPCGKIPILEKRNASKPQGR
T3 sequence (P08709 213-466 limits assumed): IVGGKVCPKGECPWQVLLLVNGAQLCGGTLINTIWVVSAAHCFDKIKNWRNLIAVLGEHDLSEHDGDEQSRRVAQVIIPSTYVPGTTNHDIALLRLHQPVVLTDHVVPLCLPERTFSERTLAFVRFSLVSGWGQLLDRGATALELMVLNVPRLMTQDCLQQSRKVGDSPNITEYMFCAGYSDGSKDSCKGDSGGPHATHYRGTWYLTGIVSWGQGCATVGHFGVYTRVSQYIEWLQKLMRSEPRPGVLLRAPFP
As to the kind of experiment: Surface plasmon resonance (Biacore 2000) binding to factor VIIa. The following applies: by surface plasmon resonance and amidolytic titration.

blood coagulation factor X: the results for the Relative Proteolytic Activity in [1] and in [2] were 0.86 and 1, respectively.
`NCCCCC(=O)O` [5-aminopentanoic acid]: the Kd in series [3] was 580000 nM.
As to “TF: integral transmembrane protein receptor tissue factor, trigger of the coagulation cascade”, the “enhancement of enzymatic activation of substrate factors IX and X on binding of factor VIIa” value in series [4] is ≤ 5,000 fold.
On to `NCCCCCCC(=O)O` [7-aminoheptanoic acid], for which the Kd in series [3] was 367000 nM.

B1: TF 1-218 (receptor, human, UniProt P13726 33-250, looked up)
chain: SGTTNTVAAYNLTWKSTNFKTILEWEPKPVNQVYTVQISTKSGDWKSKCFYTTDTECDLTDEIVKDVKQTYLARVFSYPAGNVESTGSAGEPLYENSPEFTPYLETNLGQPTIQSFEQVGTKVNVTVEDERTLVRRNNTFLSLRDVFGKDLIYTLYYWKSSSSGKKTAKTNTNEFLIDVDKGENYCFSVQAVIPSRTVNRKSTDSPVECMGQEKGEFR
notes: range 1-218; also called isolated truncated TF (tTF) domain alone; tTF
B1: the Kd came out at 4.73 nM in [5] and 3.26 nM in series [6]. Also, the “Relative Proteolytic Activity” value in series [7] turned out to be 1.00.

B2: NV144 (other, human)
chain: PRKLYDGGGGSGGGGSGGGGSTTNTVAAYNLTWKSTNFKTILEWEPKPVNQVYTVQISTKSGDWKSKCFYTTDTECDLTDEIVKDVKQTYLARVFSYPAGNVESTGSAGEPLYENSPEFTPYLETNLGQPTIQSFEQVGTKVNVTVEDERTLVRRNNTFLSLRDVFGKDLIYTLYYWKSSSSGKKTAKTNTNEFLIDVDKGENYCFSVQAVIPSRTVNRKSTDSPVECMG
notes: range 3-211; also called CDFE; context-dependent functional entity
With B2, the Kd is 4.32 nM in series [5] and 3.22 nM in series [6].

B3: NV144: CDFE fusion polypeptide: truncated human TF domain, (Gly4Ser)3 spacer, plasminogen kringle 5 peptide Pro-Arg-Lys-Leu-Tyr-Asp (protein)
chain: PRKLYDGGGGSGGGGSGGGGSTTNTVAAYNLTWKSTNFKTILEWEPKPVNQVYTVQISTKSGDWKSKCFYTTDTECDLTDEIVKDVKQTYLARVFSYPAGNVESTGSAGEPLYENSPEFTPYLETNLGQPTIQSFEQVGTKVNVTVEDERTLVRRNNTFLSLRDVFGKDLIYTLYYWKSSSSGKKTAKTNTNEFLIDVDKGENYCFSVQAVIPSRTVNRKSTDSPVECMG
With B3, in series [8], the “effects on nearby vessels in skin and nearby angiogenic vessels” value is “No similar effects”; the “rate of blood flow in the tumor” value is reported as “general slowing”. In series [8] (plasma leakage into extravascular space and hemorrhage), the “vascular permeability of tumor vessels” value was “significant and selective changes”. Besides, the “anti-tumor activity when administered alone” value in series [9] was “little or no effect; also recorded: no significant anti-tumor activity”. Moreover, the “affinity for factor VIIa compared with isolated truncated TF (tTF) domain alone” value in series [10] is “comparable”. In series [7], the “rate of fluid phase factor Xa generation as compared to tTF” value is recorded as “normal rate” and the “Relative Proteolytic Activity” value is given as 0.86.
